In article PMC6016253, “The ICP27 Homology Domain of the Human Cytomegalovirus Protein UL69 Adopts a Dimer-of-Dimers Structure” (mBio, 2018):

B1: UL69short (HCMV UL69 residues 248 to 536) (domain or fragment)
chain: PSSTSPVYDLQRYTAESLRLAPYPADLKVPTAFPQDHQPRGRILLSHDELMHTDYLLHIRQQFDWLEEPLLRKLVVEKIFAVYNAPNLHTLLAIIDETLSYMKYHHLHGLPVNPHDPYLETVGGMRQLLFNKLNNLDLGCILDHQDGWGDHCSTLKRLVKKPGQMSAWLRDDVCDLQKRPPETFSQPMHRAMAYVCSFSRVAVSLRRRALQVTGTPQFFDQFDTNNAMGTYRCGAVSDLILGALQCHECQNEMCELRIQRALAPYRFMIAYCPFDEQSLLDLTVFAGTT
notes: UL69 of human cytomegalovirus (HCMV), 744 amino acids; residues 248 to 536: ICP27 homology domain only; gene synthesis, codon optimized; HRV3C protease-cleavable N-terminal thioredoxin tag plus Strep-tag; not shown: thioredoxin, N-terminal, cleaved
B2: UL69long (HCMV UL69 residues 200 to 540) (domain or fragment)
chain: GPQQQQMLALIDDELDAMDEDELQQLSRLIEKKKRARLQRGAASSGTSPSSTSPVYDLQRYTAESLRLAPYPADLKVPTAFPQDHQPRGRILLSHDELMHTDYLLHIRQQFDWLEEPLLRKLVVEKIFAVYNAPNLHTLLAIIDETLSYMKYHHLHGLPVNPHDPYLETVGGMRQLLFNKLNNLDLGCILDHQDGWGDHCSTLKRLVKKPGQMSAWLRDDVCDLQKRPPETFSQPMHRAMAYVCSFSRVAVSLRRRALQVTGTPQFFDQFDTNNAMGTYRCGAVSDLILGALQCHECQNEMCELRIQRALAPYRFMIAYCPFDEQSLLDLTVFAGTTTTTA
notes: UL69 of human cytomegalovirus (HCMV), 744 amino acids; residues 200 to 540: ICP27 homology domain plus an N-terminal region conserved only in betaherpesviruses; gene synthesis, codon optimized; HRV3C protease-cleavable N-terminal thioredoxin tag plus Strep-tag; also called UL69 tetramer; not shown: thioredoxin, N-terminal, cleaved

Target: the molecule itself
Assay: SEC-MALS; 0.5 ml at 1 mg/ml on Superdex 200 10/300 GL, 0.75 ml/min; 20 mM HEPES, 150 mM NaCl, 50 mM L-Arg, 50 mM L-Glu, 1 mM TCEP, pH 7.9

Row | Protein | stoichiometry N
1 | B1 | 2
2 | B2 | 4
